Results on 6 molecules are retold here after US20120201746A1 (AbbVie / Abbott, published 2012).

In assay [1] the target is T1, cell surface CD28 on Jurkat E6-1 cells (UniProt P10747 19-220, limits assumed).
T1 construct: whole, on cells; Jurkat is a human cell line
Briefly: flow cytometry on Jurkat E6-1 cells. Background: In flow cytometry, cells or beads pass a laser one at a time.
Experimental: Jurkat E6-1 cells (ATCC, Manassas, Va.) were harvested and washed with PBS, and resuspended in ice cold PBS with 10% FCS (GIBCO®) at 2×10⁷ cells/ml. Anti-CD28 antibodies or half-Ig binding protein (1 μl) was added to tubes containing 100 μl of cell suspension, then incubated on ice for 30 min. The cells were washed 3 times and resuspended in ice cold PBS, then stained with PE labeled anti-human IgG1 antibody (Southern Biotech, Birmingham, Ala.) according to manufacturer's instructions. After secondary staining, the cells were washed and resuspended in ice cold PBS with 10% FCS. FACS analysis was performed on a FACScan (Becton Dickinson, Franklin Lakes, N.J.).

In assay [2] the target is T2, Recombinant Human IL-1β (human, UniProt P01584 117-269). Briefly: cell-based or functional assay.
In assay [3] the target is T2, Recombinant Human IL-1β. Put plainly: SPR (BIAcore).
Experimental: (§1) The BIAcore® assay (BIAcore®, Inc, Piscataway, N.J.) determines the affinity of antibodies with kinetic measurements of on-rate and off-rate constants. Binding of antibodies to a target antigen (for example, a purified recombinant target antigen) is determined by surface plasmon resonance-based measurements with a BIAcore® 1000 or 3000 instrument (BIAcore® AB, Uppsala, Sweden) using running HBS-EP (10 mM HEPES [pH 7.4], 150 mM NaCl, 3 mM EDTA, and 0.005% surfactant P20) at 25° C. […] Unreacted moieties on the biosensor surface are blocked with ethanolamine. Modified carboxymethyl dextran surface in flowcell 2 and 4 is used as a reaction surface. Unmodified carboxymethyl dextran without goat anti-mouse IgG in flow cell 1 and 3 is used as the reference surface. For kinetic analysis, rate equations derived from the 1:1 Langmuir binding model are fitted simultaneously to association and dissociation phases of all eight injections (using global fit analysis) with the use of Biaevaluation 4.0.1 software. Purified antibodies are diluted in HEPES-buffered saline for capture across goat anti-mouse IgG specific reaction surfaces. […] The association and dissociation rate constants, kₒₙ (M⁻¹s⁻¹) and koff (s⁻¹), are determined under a continuous flow rate of 25 μl/minute. Rate constants are derived by making kinetic binding measurements at different antigen concentrations ranging from 10-200 nM. The equilibrium dissociation constant (M) of the reaction between antibodies and the target antigen is then calculated from the kinetic rate constants by the following formula: KD=koff/kₒₙ. Binding is recorded as a function of time and kinetic rate constants are calculated.
In assay [4] the target is T2, Recombinant Human IL-1β. Put plainly: SPR (BIAcore); *off-rate at the limit of dissociation after 1 hour. For orientation: Surface plasmon resonance follows binding to a sensor surface in real time, without labels.
Experimental: The BIAcore® assay (BIAcore®, Inc, Piscataway, N.J.) determines the affinity of antibodies with kinetic measurements of on-rate and off-rate constants. Binding of antibodies to a target antigen (for example, a purified recombinant target antigen) is determined by surface plasmon resonance-based measurements with a BIAcore® 1000 or 3000 instrument (BIAcore® AB, Uppsala, Sweden) using running HBS-EP (10 mM HEPES [pH 7.4], 150 mM NaCl, 3 mM EDTA, and 0.005% surfactant P20) at 25° C. […] Unreacted moieties on the biosensor surface are blocked with ethanolamine. Modified carboxymethyl dextran surface in flowcell 2 and 4 is used as a reaction surface. Unmodified carboxymethyl dextran without goat anti-mouse IgG in flow cell 1 and 3 is used as the reference surface. […] The association and dissociation rate constants, kₒₙ (M⁻¹s⁻¹) and koff (s⁻¹), are determined under a continuous flow rate of 25 μl/minute. […] The equilibrium dissociation constant (M) of the reaction between antibodies and the target antigen is then calculated from the kinetic rate constants by the following formula: KD=koff/kₒₙ. Binding is recorded as a function of time and kinetic rate constants are calculated.
Assay [5] has as its target Recombinant Human TNF-α/TNFSF1A (human, UniProt P01375 77-233). Put plainly: SPR (BIAcore).
Experimental: as §1
The target of assay [6] is T3, recombinant human IL-18 (human, UniProt Q14116 37-193). Briefly: cell-based or functional assay.
Assay [7] concerns the target T4, human IL-12 (human, UniProt P29459 23-219; P29460 23-328).
T4 sequence (looked up) 1: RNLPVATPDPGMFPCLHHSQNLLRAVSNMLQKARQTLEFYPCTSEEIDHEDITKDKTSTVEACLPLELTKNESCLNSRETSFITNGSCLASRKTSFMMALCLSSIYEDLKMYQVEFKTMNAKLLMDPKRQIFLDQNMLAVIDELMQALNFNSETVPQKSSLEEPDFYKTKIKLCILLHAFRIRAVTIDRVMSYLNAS
T4 sequence (looked up) 2: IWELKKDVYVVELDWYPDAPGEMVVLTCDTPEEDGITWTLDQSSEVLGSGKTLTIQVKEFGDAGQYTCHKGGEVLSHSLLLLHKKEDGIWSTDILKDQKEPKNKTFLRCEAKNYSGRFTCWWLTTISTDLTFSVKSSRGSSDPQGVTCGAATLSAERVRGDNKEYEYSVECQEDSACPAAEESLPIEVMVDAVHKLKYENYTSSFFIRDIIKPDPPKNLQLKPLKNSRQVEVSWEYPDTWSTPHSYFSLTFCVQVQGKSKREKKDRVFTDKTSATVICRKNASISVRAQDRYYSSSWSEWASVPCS
Put plainly: cell-based or functional assay.

For assay [8], the target named is T3, recombinant human IL-18. Briefly: SPR (BIAcore).
Experimental: as §1
Assay [9] deals with T4, human IL-12. Briefly: SPR (BIAcore).
Experimental: as §1
Assay [10] deals with T5, Neonatal Fc receptor (FcRn) on CHO-FcRnGPI cells.
T5 construct: whole, on cells; also called FcRn receptor
Briefly: flow cytometry on CHO-FcRnGPI cells, pH 6.4.
Experimental: CHO-FcRnGPI cells (Stable FcRn receptor expressor) and CHO-pBudl l cells (non-FcRn expressor) were aliquotted into 96-well plates at 1×10⁵ cells/well. Cells were resuspended in 150 μl FACS buffer. Anti-c-Met Ab and half-Ig binding proteins were diluted to 100 μg/ml in FACS buffer pH 6.4 and pH 7.4. 30 μl of diluted antibody or half-Ig binding protein was added to each well and incubated on ice for 1 hour. Following 2 washes with FACS buffer, 50 μl of secondary antibody R-phycoerythrin-conjugated AfiniPure F(ab′)₂ Fragment goat anti-human IgG (Jackson ImmunoResearch®, West Grove, Pa.) diluted in FACS buffer pH 6.4 or pH7.4 was added. The mixture was incubated for 30 min on ice. The cells were resuspended in 100 μl PBS with 1% FBS (Invitrogen®, Carlsbad, Calif.) and 2 μg/ml propidium iodide (Invitrogen®, Carlsbad, Calif.) of the corresponding pH. Final FACS data were acquired on a FACScan (Becton Dickinson, Franklin Lakes, N.J.).

The target in assay [11] is T6, biotin-labeled c-Met (UniProt P08581 25-932, limits assumed, biotin-labeled). Put plainly: ELISA, biotin-labeled c-Met detected with streptavidin-HRP; parental full antibody. On the technique in general: An ELISA detects its analyte on a solid surface through an enzyme-linked reagent.
Experimental: (§2) c-Met binding ELISA was performed to characterize the antigen binding property of anti-c-Met half-Igs. 96-well ELISA plates were coated with 100 μl/well 5 μg/ml anti-mouse IgG Fc in PBS at 4° C. overnight. After 3 washes with PBS/0.05% Tween®20, the plates were blocked with 5% milk in PBS for 1 hour at room temperature. After another 3 washes with PBS/0.05% Tween®20, 100 μl c-Met antibody or half-Ig was added to each well followed by an incubation of 1 hour at room temperature. Binding biotin-labeled c-Met was detected by Streptavidin-horseradish peroxidase (KPL, Gaithersburg, Md.) and tetramethylbenzidine (Thermo Scientific, Rockford, Ill.). Final absorbances were acquired at 450 nm after stopping the reactions with 2 mol/L H₂SO₄.
The target of assay [12] is T6, biotin-labeled c-Met. Put plainly: ELISA, biotin-labeled c-Met detected with streptavidin-HRP; half-Ig (cMet-Mut6).
Experimental: as §2

T6 sequence (P08581 25-932 limits assumed): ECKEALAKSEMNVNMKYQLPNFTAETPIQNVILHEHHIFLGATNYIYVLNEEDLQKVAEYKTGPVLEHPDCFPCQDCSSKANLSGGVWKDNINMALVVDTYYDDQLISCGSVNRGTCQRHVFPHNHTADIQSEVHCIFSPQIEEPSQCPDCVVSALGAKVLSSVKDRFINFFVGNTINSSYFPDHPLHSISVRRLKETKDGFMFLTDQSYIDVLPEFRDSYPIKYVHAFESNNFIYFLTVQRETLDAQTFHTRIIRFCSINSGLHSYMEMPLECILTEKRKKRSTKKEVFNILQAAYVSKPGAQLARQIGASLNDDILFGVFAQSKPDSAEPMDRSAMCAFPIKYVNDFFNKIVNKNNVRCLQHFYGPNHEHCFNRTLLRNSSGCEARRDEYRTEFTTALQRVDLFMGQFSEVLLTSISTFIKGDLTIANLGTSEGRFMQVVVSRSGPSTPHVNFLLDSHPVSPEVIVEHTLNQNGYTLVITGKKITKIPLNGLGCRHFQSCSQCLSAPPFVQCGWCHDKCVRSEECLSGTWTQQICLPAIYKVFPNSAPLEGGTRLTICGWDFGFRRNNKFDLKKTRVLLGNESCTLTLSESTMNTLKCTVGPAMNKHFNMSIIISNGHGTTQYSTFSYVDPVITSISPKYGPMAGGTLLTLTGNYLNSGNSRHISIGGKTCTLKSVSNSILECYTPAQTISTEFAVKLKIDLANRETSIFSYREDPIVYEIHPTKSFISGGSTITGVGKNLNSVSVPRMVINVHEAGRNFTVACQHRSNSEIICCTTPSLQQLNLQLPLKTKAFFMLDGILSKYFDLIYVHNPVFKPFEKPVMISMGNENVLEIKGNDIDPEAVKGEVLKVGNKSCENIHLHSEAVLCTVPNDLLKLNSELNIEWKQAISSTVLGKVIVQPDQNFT
T5 sequence (P55899 24-297, chain 1 of 2): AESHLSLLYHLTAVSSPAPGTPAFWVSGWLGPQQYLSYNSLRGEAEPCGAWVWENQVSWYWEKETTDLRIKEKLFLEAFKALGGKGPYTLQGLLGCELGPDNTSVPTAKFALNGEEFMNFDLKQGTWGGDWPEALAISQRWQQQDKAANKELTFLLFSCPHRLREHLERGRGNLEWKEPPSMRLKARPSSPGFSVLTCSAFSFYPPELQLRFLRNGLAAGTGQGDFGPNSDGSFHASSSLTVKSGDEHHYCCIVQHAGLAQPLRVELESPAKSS
T5 sequence (P61769 21-119, chain 2 of 2, further chain): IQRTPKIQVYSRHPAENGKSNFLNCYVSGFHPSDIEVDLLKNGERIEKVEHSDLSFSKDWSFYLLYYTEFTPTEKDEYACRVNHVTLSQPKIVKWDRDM
Recombinant Human TNF-α/TNFSF1A, sequence (P01375 77-233 limits assumed): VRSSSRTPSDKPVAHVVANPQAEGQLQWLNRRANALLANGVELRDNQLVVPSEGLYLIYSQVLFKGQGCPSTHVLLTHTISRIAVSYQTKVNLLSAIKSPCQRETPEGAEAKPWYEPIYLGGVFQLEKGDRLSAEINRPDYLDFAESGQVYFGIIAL

B1: Anti-CD28 Ig (parental antibody 9.3) (antibody, human IgG1, kappa, V domains shown)
VH: QVKLQQSGAELVKPGASVRLSCKASGYTFTEYIIHWIKLRSGQGLEWIGWFYPGSNDIQYNAKFKGKATLTADKSSSTVYMELTGLTSEDSAVYFCARRDDFSGYDALPYWGQGTMVTVSS
VL: DIQMTQSPASLSVSVGETVTITCRTNENIYSNLAWYQQKQGKSPQLLIYAATHLVEGVPSRFSGSGSGTQYSLKITSLQSEDFGNYYCQHFWGTPCTFGGGTKLEIKR
notes: 9.3 variable domains on human Cg1 (z, non-a) and human Ck; also called anti-CD28 antibody 9.3
As to B1, the binding result in assay [1] is recorded as “binds”.

B2: ½ IL1b DA1 Fc (Fc fusion)
chain: EVQLLESGGGLVQPGGSLRLSCAASGFTFADEGMMWVRQAPGKGLEWVSRITYSGKNTYYADSVKGRFTISRDNSKNTLYLQMNSLRAEDTAVYYCAKYTGRILGHHLFDYWGQGTLVTVSSEPKSSDKTHTSPPSPAPELLGGPSVFLFPPKPKDTLMISRTPEVTCVVVDVSHEDPEVKFNWYVDGVEVHNAKTKPREEQYNSTYRVVSVLTVLHQDWLNGKEYKCKVSNKALPAPIEKTISKAKGQPREPQVYTLPPSREEMTKNQVSLTCLVKGFYPSDIAVEWESNGQPENNYKTTPPVLDSDGSFRLYSKLTVDKSRWQQGNVFSCSVMHEALHNHYTQKSLSLSPGK
notes: Half domain antibody-Fc with Fc-Mut18; 82 % half-Ig by SEC; also called half IL1b DA1 Fc
The term Kd denotes the constant that tells how readily two partners part at equilibrium. The kon is the rate constant with which the complex forms. One may read the koff as the first-order rate constant of dissociation. As for B2, the “IL-1β Neutralization Assay EC50 nM; IL-8 release from MRC5 cells” value with Recombinant Human IL-1β [2] was found to be 0.155 nM. Also, in the assay with Recombinant Human IL-1β [3], the Kd amounted to 0.053 nM and the on-rate (kon) came to 120000 M⁻¹ s⁻¹. Besides, the koff in the assay with Recombinant Human IL-1β [4] was 6.4e-06 s⁻¹.

B3: ½ hTNFaR Fc (Fc fusion)
chain: LPAQVAFTPYAPEPGSTCRLREYYDQTAQMCCSKCSPGQHAKVFCTKTSDTVCDSCEDSTYTQLWNWVPECLSCGSRCSSDQVETQACTREQNRICTCRPGWYCALSKQEGCRLCAPLRKCRPGFGVARPGTETSDVVCKPCAPGTFSNTTSSTDICRPHQICNVVAIPGNASMDAVCTSTSPTRSMAPGAVHLPQPVSTRSQHTQPTPEPSTAPSTSFLLPMGPSPPAEGSTGDEPKSSDKTHTSPPSPAPELLGGPSVFLFPPKPKDTLMISRTPEVTCVVVDVSHEDPEVKFNWYVDGVEVHNAKTKPREEQYNSTYRVVSVLTVLHQDWLNGKEYKCKVSNKALPAPIEKTISKAKGQPREPQVYTLPPSREEMTKNQVSLTCLVKGFYPSDIAVEWESNGQPENNYKTTPPVLDSDGSFRLYSKLTVDKSRWQQGNVFSCSVMHEALHNHYTQKSLSLSPGK
notes: Half receptor-Fc with Fc-Mut18; 55 % half-Ig by SEC; also called half hTNFaR Fc
As to B3, in assay [5], the kon came out at 1.9e+06 M⁻¹ s⁻¹.

B4: ½ IL12/IL18/PGE2 TVD (other)
heavy: EVTLRESGPALVKPTQTLTLTCTFSGFSLSKSVMGVSWIRQPPGKALEWLAHIYWDDDKYYNPSLKSRLTISKDTSKNQVVLTMTNMDPVDTATYYCARRGIRSAMDYWGQGTTVTVSSASTKGPEVQLVQSGTEVKKPGESLKISCKGSGYTVTSYWIGWVRQMPGKGLEWMGFIYPGDSETRYSPTFQGQVTISADKSFNTAFLQWSSLKASDTAMYYCARVGSGWYPYTFDIWGQGTMVTVSSASTKGPEVQLVQSGAEVKKPGASVKVSCKASGYTFTKYWLGWVRQAPGQGLEWMGDIYPGYDYTHYNEKFKDRVTLTTDTSTSTAYMELRSLRSDDTAVYYCARSDGSSTYWGQGTLVTVSSASTKGPSVFPLAPSSKSTSGGTAALGCLVKDYFPEPVTVSWNSGALTSGVHTFPAVLQSSGLYSLSSVVTVPSSSLGTQTYICNVNHKPSNTKVDKKVEPKSCDKTHTSPPSPAPELLGGPSVFLFPPKPKDTLMISRTPEVTCVVVDVSHEDPEVKFNWYVDGVEVHNAKTKPREEQYNSTYRVVSVLTVLHQDWLNGKEYKCKVSNKALPAPIEKTISKAKGQPREPQVYTLPPSREEMTKNQVSLTCLVKGFYPSDIAVEWESNGQPENNYKTTPPVLDSDGSFRLYSKLTVDKSRWQQGNVFSCSVMHEALHNHYTQKSLSLSPGK
light: DIVMTQSPDSLAVSLGERATINCKASQSVSNDVAWYQQKPGQPPKLLIYYASNRYTGVPDRFSGSGSGTDFTLTISSLQAEDVAVYYCQQDYNSPWTFGGGTKVEIKRTVAAPEIVMTQSPATLSVSPGERATLSCRASESISSNLAWYQQKPGQAPRLFIYTASTRATDIPARFSGSGSGTEFTLTISSLQSEDFAVYYCQQYNNWPSITFGQGTRLEIKRTVAAPDVLMTQTPLSLPVTPGEPASISCTSSQNIVHSNGNTYLEWYLQKPGQSPQLLIYKVSNRFSGVPDRFSGSGSGTDFTLKISRVEAEDVGVYYCFQVSHVPYTFGGGTKVEIKRTVAAPSVFIFPPSDEQLKSGTASVVCLLNNFYPREAKVQWKVDNALQSGNSQESVTEQDSKDSTYSLSSTLTLSKADYEKHKVYACEVTHQGLSSPVTKSFNRGEC
notes: Half TVD with hCg1-Mut18 (F405R, C226S, C229S); 78 % by SEC; also called Half IL12/IL18/PGE2 TVD; IL12/IL18/PGE2 TVD half-Ig
With B4, the “Neutralization of IL-18 IC50 (nM); IFN-γ release from KG-1 cells” value with recombinant human IL-18 [6] worked out at 0.918 nM. Also, the “Neutralization of IL-12 IC50 (nM); IFN-γ release from PHA blast cells” value with human IL-12 [7] turned out to be 12.5 nM. In the assay with recombinant human IL-18 [8], the Kd worked out at 0.44 nM, the off-rate (koff) was determined as 5.9e-05 s⁻¹ and the kon was 130000 M⁻¹ s⁻¹. In the assay with human IL-12 [9], the affinity, expressed as Kd, was 0.13 nM; the off-rate (koff) amounted to 5.1e-05 s⁻¹; the kon stood at 400000 M⁻¹ s⁻¹.

B5: Anti-c-Met Ig (parental 5D5 anti-cMet antibody) (antibody, human IgG1, kappa)
heavy: not shown
light: DFMMSQSPSSLTVSVGEKVTVSCKSSQSLLYTSSQKNYLAWYQQKPGQSPKLLIYWASTRESGVPDRFTGSGSGTDFTLTITSVKADDLAVYYCQQYYAYPWTFGGGTKLELKRTVAAPSVFIFPPSDEQLKSGTASVVCLLNNFYPREAKVQWKVDNALQSGNSQESVTEQDSKDSTYSLSSTLTLSKADYEKHKVYACEVTHQGLSSPVTKSFNRGEC
notes: Mouse 5D5 variable domains cloned into human Cg1 (z, non-a) and human Ck vectors; also called cMet mAb; wild-type c-Met antibody
The EC50 is the concentration that produces a half-maximal response. For the molecule B5, the 50% effective concentration (EC50) stood at 51.8 nM in assay [10] and 0.36 nM with biotin-labeled c-Met [11].

B6: cMet-Mut6 half-Ig binding protein (antibody)
heavy: QVQLQQSGPELVRPGASVKMSCRASGYTFTSYWLHWVKQRPGQGLEWIGMIDPSNSDTRFNPNFKDKATLNVDRSSNTAYMLLSSLTSADSAVYYCATYGSYVSPLDYWGQGTSVTVSSASTKGPSVFPLAPSSKSTSGGTAALGCLVKDYFPEPVTVSWNSGALTSGVHTFPAVLQSSGLYSLSSVVTVPSSSLGTQTYICNVNHKPSNTKVDKKVEPKSSDKTHTSPPCPAPELLGGPSVFLFPPKPKDTLMISRTPEVTCVVVDVSHEDPEVKFNWYVDGVEVHNAKTKPREEQYNSTYRVVSVLTVLHQDWLNGKEYKCKVSNKALPAPIEKTISKAKGQPREPQVYTLPPSREEMTKNQVSLTCLVKGFYPSDIAVEWESNGQPENNYKTTPAVLDSDGSFRLRSDLTVDKSRWQQGNVFSCSVMHEALHNHYTQKSLSLSPGK
light: DFMMSQSPSSLTVSVGEKVTVSCKSSQSLLYTSSQKNYLAWYQQKPGQSPKLLIYWASTRESGVPDRFTGSGSGTDFTLTITSVKADDLAVYYCQQYYAYPWTFGGGTKLELKRTVAAPSVFIFPPSDEQLKSGTASVVCLLNNFYPREAKVQWKVDNALQSGNSQESVTEQDSKDSTYSLSSTLTLSKADYEKHKVYACEVTHQGLSSPVTKSFNRGEC
notes: Half-Ig; CH3 P395A, F405R, Y407R, K409D; 100 % half-Ig by SEC; also called cMetHC-Mut6
On to B6, for which, in the assay with biotin-labeled c-Met [12], the half-maximal effective concentration (EC50) stood at 0.46 nM.
